Assay [1] has as its target Acanthamoeba actin (Acanthamoeba).
In assay [2] the target is Rabbit skeletal muscle actin (rabbit, UniProt P68135 1-377). As to the kind of experiment: inhibition of actin polymerization by profilin.
Assay [3] has as its target Acanthamoeba actin (Acanthamoeba). Kind of assay: critical concentration of actin polymerization at steady state.

“And” between values parts separate entries of the source, which are not always exact repeats. Identical values can stand only once. Like-named read-outs stand apart in the source and are kept apart here.

B1: Acanthamoeba profilin (natural protein)
chain: SWQTYVDTNLVGTGAVTQAAILGLDGNTWATSAGFAVTPAQGQTLASAFNNADPIRASGFDLAGVHYVTLRADDRSIYGKKGSAGVITVKTSKSILVGVYNEKIQPGTAANVVEKLADYLIGQGF
For orientation: Kd means the free concentration of one partner at which half of the binding sites on the other are occupied at equilibrium, for simple one-to-one binding. For the molecule B1, the Kd was 4 µM and 3.1 µM and 3.7 µM in assay [1]; over 30 µM in assay [2]; 0.9 µM and 1.4 µM and 1.3 µM in assay [3].

For the origin of these results see paper PMC2112199 (The Journal of Cell Biology, 1982).
